The source of these data is publication PMC5818494, “Specific Recognition of Arginine Methylated Histone Tails by JMJD5 and JMJD7” (Scientific Reports, 2018).

The target in test [1] is T1, c-JMJD5 (Homo sapiens, UniProt Q8N371).
T1 construct: JMJD5 (residues 183–416, c-JMJD5) lacking the N-terminal domain; made in house
The experiment in a line: Biacore surface plasmon resonance binding of c-JMJD5 to immobilised bulk histone or synthetic peptides. The conditions noted are these: C-terminal biotin peptide on SA chip or bulk histone on CM5 chip, c-JMJD5 injected, room temperature. How it is done: (§1) Data were integrated and scaled using the HKL2000 suite of programs.
(§2) 10 μg/ml calf bulk histone was dissolved in coating buffer (50 mM sodium acetate [pH 5.0]) and coated onto a CM5 chip (GE Healthcare). […] For peptides, 2 μg/ml synthetic peptide with C-terminal biotin was dissolved in PBS and coated onto a streptavidin coated SA chip (GE Healthcare). […] Similar procedures were carried out for JMJD5. All experiments are carried out at room temperature.

Test [2] deals with T1, c-JMJD5. The conditions noted are these: fluorescence polarization, c-JMJD5, previous report; read-out: binding affinity; cited from earlier work. The text has this: The binding affinities of various lysine binding domains, such as Chromodomains, PHD fingers, Tudor domains, etc., to lysine residues with and without methylation has been very well established. It is also true that the difference in binding affinity of Tudor domains to arginine with and without methylation is also marginal. The question here is whether c-JMJD5 or JMJD7 has different binding affinity depending on the methylation status of arginine. From the complex structure shown above, c-JMJD5 contains a binding pocket for methylarginine that is similar to those of Tudor domains (Fig ... || Clipping of histone tails, high turnover rates of histone in non-proliferating cells, arginine demethylation, and Pol II elongation control are highly contentious subjects in the transcription and epigenetic fields. Our previous novel discovery of clipping of arginine methylated histone tails by JMJD5 and JMJD7 sheds light on how these topics are intrinsically coupled. Data presented here not only reveal the underlying mechanism of novel enzymatic activities of JMJD5 and JMJD7, but also further corroborate our previous findings. Shortly after the release of our report, Shen et al. also repo ...
(Fluorescence polarisation rises when a labelled molecule tumbles more slowly, as on binding a larger partner.)

For the next test, the target named is T2, JMJD7 (Mus musculus, UniProt P0C872).
T2 construct: The final model contains residues 1–316; GST (N, cleaved yes); made in house
Put plainly: Biacore surface plasmon resonance binding of JMJD7 to immobilised bulk histone or synthetic peptides. The following applies: C-terminal biotin peptide on SA chip or bulk histone on CM5 chip, JMJD7 injected, room temperature. How it is done:
as §1, §2
(SPR reads the build-up and loss of mass on a sensor chip optically.)

T1 sequence (Q8N371 183-416): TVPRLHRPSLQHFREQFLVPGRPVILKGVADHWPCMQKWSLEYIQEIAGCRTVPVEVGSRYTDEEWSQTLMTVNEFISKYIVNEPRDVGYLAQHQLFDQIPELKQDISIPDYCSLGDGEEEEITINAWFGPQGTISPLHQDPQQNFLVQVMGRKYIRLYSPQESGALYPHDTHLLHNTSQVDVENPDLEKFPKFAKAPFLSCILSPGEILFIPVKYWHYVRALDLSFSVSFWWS
T2 sequence (P0C872 whole entry, the tested form may be a part): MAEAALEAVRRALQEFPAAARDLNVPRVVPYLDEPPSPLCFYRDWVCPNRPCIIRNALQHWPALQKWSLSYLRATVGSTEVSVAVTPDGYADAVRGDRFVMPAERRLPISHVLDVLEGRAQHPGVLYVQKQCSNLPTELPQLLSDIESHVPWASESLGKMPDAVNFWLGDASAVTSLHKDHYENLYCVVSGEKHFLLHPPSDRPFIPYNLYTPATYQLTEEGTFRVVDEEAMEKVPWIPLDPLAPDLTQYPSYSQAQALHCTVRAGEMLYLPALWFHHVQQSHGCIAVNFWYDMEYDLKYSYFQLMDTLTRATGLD

Regarding pH3: native form of H3 peptide (1–21), the “binding in words (SPR sensorgram)” value with c-JMJD5 [1] and with JMJD7 was “non-specific binding” in each case. For the same substance, the Kd with c-JMJD5 [2] is approximately 7 µM.
